Biological target: His-Bub3 (recombinant full-length Bub3) (mouse, UniProt Q9WVA3 1-326)
Assay: pull-down

His-Bub3 (recombinant full-length Bub3), sequence (Q9WVA3 whole entry): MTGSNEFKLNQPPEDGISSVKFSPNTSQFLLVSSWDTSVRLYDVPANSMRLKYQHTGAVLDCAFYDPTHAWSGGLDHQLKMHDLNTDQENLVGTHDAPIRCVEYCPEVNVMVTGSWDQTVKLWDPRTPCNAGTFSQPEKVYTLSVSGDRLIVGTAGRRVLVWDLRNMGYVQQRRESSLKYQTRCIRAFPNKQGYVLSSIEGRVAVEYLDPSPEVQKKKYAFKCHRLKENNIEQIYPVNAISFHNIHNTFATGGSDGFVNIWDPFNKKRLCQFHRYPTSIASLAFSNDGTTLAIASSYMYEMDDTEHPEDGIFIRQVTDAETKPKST

- binding result: binds
B1: GST-Wapl(1-50) (domain or fragment, mouse, UniProt Q65Z40 1-50, looked up)
chain: MTSRFGKTYSRKGGNGSSKFDEVFSNKRTTLSTKWGETTFMAKLGQKRPN

Source: PMC7141834 (Science Advances, 2020)
